Experimental data published in patent US20260139017A1, “COMPOSITIONS AND METHODS USING REELIN IN ALZHEIMER'S DISEASE” (The General Hospital Corporation, priority 2022, published 2026).

Biological target: Neuropilin 1 (NRP1), R&D 3870-N1-025 (UniProt O14786)
Assay: BLI (Octet), biotinylated NRP1 on SA biosensor, 1:1 global fit

Neuropilin 1 (NRP1), R&D 3870-N1-025, sequence (O14786 other isoform, or with tags, fused parts or gaps limits assumed): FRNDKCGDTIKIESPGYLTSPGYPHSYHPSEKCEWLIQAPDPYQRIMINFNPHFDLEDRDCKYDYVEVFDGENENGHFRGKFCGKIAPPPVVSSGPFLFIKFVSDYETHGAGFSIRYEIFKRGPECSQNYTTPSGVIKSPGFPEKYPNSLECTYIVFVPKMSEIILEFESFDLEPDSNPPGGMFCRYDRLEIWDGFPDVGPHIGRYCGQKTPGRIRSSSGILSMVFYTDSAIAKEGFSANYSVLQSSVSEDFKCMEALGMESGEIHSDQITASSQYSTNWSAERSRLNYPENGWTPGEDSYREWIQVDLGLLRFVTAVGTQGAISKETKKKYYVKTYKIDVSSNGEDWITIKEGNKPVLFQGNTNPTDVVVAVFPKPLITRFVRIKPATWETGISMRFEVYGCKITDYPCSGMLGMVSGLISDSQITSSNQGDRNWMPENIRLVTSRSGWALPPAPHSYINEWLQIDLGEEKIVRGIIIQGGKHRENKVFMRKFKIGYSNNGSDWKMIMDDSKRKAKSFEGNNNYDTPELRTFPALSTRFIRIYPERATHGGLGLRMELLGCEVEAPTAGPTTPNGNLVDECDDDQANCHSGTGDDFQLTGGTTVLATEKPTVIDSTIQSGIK

Vascular endothelial growth factor (VEGF) (ligand)
Kd: 5.53 nM | koff: 0.0015 s⁻¹ | kon: 272000 M⁻¹ s⁻¹
